*1 amine or outer side, *2 acyl side, *3 side chain or, on linkers, in order; H or OH if unused. Where no end group is shown, it is not given here. Side-chain parts run from the residue outwards. [ ]: non-standard residue; d: D form. The star is where a group is joined. γGlu = O=C(O)[C@H](CCC(=O)[*:2])N[*:1]; Palmitoyl = CCCCCCCCCCCCCCCC(=O)*; Aib = CC(C)(N)C(=O)O
B1: exendin-4 peptide analogue SEQ ID NO: 10 (peptide)
peptide: Y[Aib]QGTFTSDLSIQK([γGlu-Palmitoyl])EKYAA[Aib]EFIEWLKNTGPSSGAPPPS-NH2
modifications: N-terminus assumed
SMILES: CCCCCCCCCCCCCCCC(=O)N[C@@H](CCC(=O)NCCCC[C@H](NC(=O)[C@H](CCC(N)=O)NC(=O)[C@@H](NC(=O)[C@H](CO)NC(=O)[C@H](CC(C)C)NC(=O)[C@H](CC(=O)O)NC(=O)[C@H](CO)NC(=O)[C@@H](NC(=O)[C@H](Cc1ccccc1)NC(=O)[C@@H](NC(=O)CNC(=O)[C@H](CCC(N)=O)NC(=O)C(C)(C)NC(=O)[C@@H](N)Cc1ccc(O)cc1)[C@@H](C)O)[C@@H](C)O)[C@@H](C)CC)C(=O)N[C@@H](CCC(=O)O)C(=O)N[C@@H](CCCCN)C(=O)N[C@@H](Cc1ccc(O)cc1)C(=O)N[C@@H](C)C(=O)N[C@@H](C)C(=O)NC(C)(C)C(=O)N[C@@H](CCC(=O)O)C(=O)N[C@@H](Cc1ccccc1)C(=O)N[C@H](C(=O)N[C@@H](CCC(=O)O)C(=O)N[C@@H](Cc1c[nH]c2ccccc12)C(=O)N[C@@H](CC(C)C)C(=O)N[C@@H](CCCCN)C(=O)N[C@@H](CC(N)=O)C(=O)N[C@H](C(=O)NCC(=O)N1CCC[C@H]1C(=O)N[C@@H](CO)C(=O)N[C@@H](CO)C(=O)NCC(=O)N[C@@H](C)C(=O)N1CCC[C@H]1C(=O)N1CCC[C@H]1C(=O)N1CCC[C@H]1C(=O)N[C@@H](CO)C(N)=O)[C@@H](C)O)[C@@H](C)CC)C(=O)O
B2: exendin-4 peptide analogue SEQ ID NO: 53 (peptide)
peptide: Y[Aib]QGTFTSDLSIQK([γGlu-Palmitoyl])DKRRAQDFIEWLKAGGPSSGAPPPS-NH2
modifications: N-terminus assumed
SMILES: CCCCCCCCCCCCCCCC(=O)N[C@@H](CCC(=O)NCCCC[C@H](NC(=O)[C@H](CCC(N)=O)NC(=O)[C@@H](NC(=O)[C@H](CO)NC(=O)[C@H](CC(C)C)NC(=O)[C@H](CC(=O)O)NC(=O)[C@H](CO)NC(=O)[C@@H](NC(=O)[C@H](Cc1ccccc1)NC(=O)[C@@H](NC(=O)CNC(=O)[C@H](CCC(N)=O)NC(=O)C(C)(C)NC(=O)[C@@H](N)Cc1ccc(O)cc1)[C@@H](C)O)[C@@H](C)O)[C@@H](C)CC)C(=O)N[C@@H](CC(=O)O)C(=O)N[C@@H](CCCCN)C(=O)N[C@@H](CCCNC(=N)N)C(=O)N[C@@H](CCCNC(=N)N)C(=O)N[C@@H](C)C(=O)N[C@@H](CCC(N)=O)C(=O)N[C@@H](CC(=O)O)C(=O)N[C@@H](Cc1ccccc1)C(=O)N[C@H](C(=O)N[C@@H](CCC(=O)O)C(=O)N[C@@H](Cc1c[nH]c2ccccc12)C(=O)N[C@@H](CC(C)C)C(=O)N[C@@H](CCCCN)C(=O)N[C@@H](C)C(=O)NCC(=O)NCC(=O)N1CCC[C@H]1C(=O)N[C@@H](CO)C(=O)N[C@@H](CO)C(=O)NCC(=O)N[C@@H](C)C(=O)N1CCC[C@H]1C(=O)N1CCC[C@H]1C(=O)N1CCC[C@H]1C(=O)N[C@@H](CO)C(N)=O)[C@@H](C)CC)C(=O)O
B3: exendin-4 peptide analogue SEQ ID NO: 56 (peptide)
peptide: Y[Aib]QGTFTSDLSKQK([γGlu-Palmitoyl])DSRAARDFIEWLKAGGPSSGAPPPS-NH2
modifications: N-terminus assumed
SMILES: CCCCCCCCCCCCCCCC(=O)N[C@@H](CCC(=O)NCCCC[C@H](NC(=O)[C@H](CCC(N)=O)NC(=O)[C@H](CCCCN)NC(=O)[C@H](CO)NC(=O)[C@H](CC(C)C)NC(=O)[C@H](CC(=O)O)NC(=O)[C@H](CO)NC(=O)[C@@H](NC(=O)[C@H](Cc1ccccc1)NC(=O)[C@@H](NC(=O)CNC(=O)[C@H](CCC(N)=O)NC(=O)C(C)(C)NC(=O)[C@@H](N)Cc1ccc(O)cc1)[C@@H](C)O)[C@@H](C)O)C(=O)N[C@@H](CC(=O)O)C(=O)N[C@@H](CO)C(=O)N[C@@H](CCCNC(=N)N)C(=O)N[C@@H](C)C(=O)N[C@@H](C)C(=O)N[C@@H](CCCNC(=N)N)C(=O)N[C@@H](CC(=O)O)C(=O)N[C@@H](Cc1ccccc1)C(=O)N[C@H](C(=O)N[C@@H](CCC(=O)O)C(=O)N[C@@H](Cc1c[nH]c2ccccc12)C(=O)N[C@@H](CC(C)C)C(=O)N[C@@H](CCCCN)C(=O)N[C@@H](C)C(=O)NCC(=O)NCC(=O)N1CCC[C@H]1C(=O)N[C@@H](CO)C(=O)N[C@@H](CO)C(=O)NCC(=O)N[C@@H](C)C(=O)N1CCC[C@H]1C(=O)N1CCC[C@H]1C(=O)N1CCC[C@H]1C(=O)N[C@@H](CO)C(N)=O)[C@@H](C)CC)C(=O)O
B4: exendin-4 peptide analogue SEQ ID NO: 55 (peptide)
peptide: Y[Aib]EGTFTSDLSIQK([γGlu-Palmitoyl])DKRAAQLFIEWLKNGGPSSGAPPPS-NH2
modifications: N-terminus assumed
SMILES: CCCCCCCCCCCCCCCC(=O)N[C@@H](CCC(=O)NCCCC[C@H](NC(=O)[C@H](CCC(N)=O)NC(=O)[C@@H](NC(=O)[C@H](CO)NC(=O)[C@H](CC(C)C)NC(=O)[C@H](CC(=O)O)NC(=O)[C@H](CO)NC(=O)[C@@H](NC(=O)[C@H](Cc1ccccc1)NC(=O)[C@@H](NC(=O)CNC(=O)[C@H](CCC(=O)O)NC(=O)C(C)(C)NC(=O)[C@@H](N)Cc1ccc(O)cc1)[C@@H](C)O)[C@@H](C)O)[C@@H](C)CC)C(=O)N[C@@H](CC(=O)O)C(=O)N[C@@H](CCCCN)C(=O)N[C@@H](CCCNC(=N)N)C(=O)N[C@@H](C)C(=O)N[C@@H](C)C(=O)N[C@@H](CCC(N)=O)C(=O)N[C@@H](CC(C)C)C(=O)N[C@@H](Cc1ccccc1)C(=O)N[C@H](C(=O)N[C@@H](CCC(=O)O)C(=O)N[C@@H](Cc1c[nH]c2ccccc12)C(=O)N[C@@H](CC(C)C)C(=O)N[C@@H](CCCCN)C(=O)N[C@@H](CC(N)=O)C(=O)NCC(=O)NCC(=O)N1CCC[C@H]1C(=O)N[C@@H](CO)C(=O)N[C@@H](CO)C(=O)NCC(=O)N[C@@H](C)C(=O)N1CCC[C@H]1C(=O)N1CCC[C@H]1C(=O)N1CCC[C@H]1C(=O)N[C@@H](CO)C(N)=O)[C@@H](C)CC)C(=O)O
B5: exendin-4 peptide analogue SEQ ID NO: 52 (peptide)
peptide: Y[Aib]QGTFTSDLSIQK([γGlu-Palmitoyl])DSRRAQDFIEWLKAGGPSSGAPPPS-NH2
modifications: N-terminus assumed
SMILES: CCCCCCCCCCCCCCCC(=O)N[C@@H](CCC(=O)NCCCC[C@H](NC(=O)[C@H](CCC(N)=O)NC(=O)[C@@H](NC(=O)[C@H](CO)NC(=O)[C@H](CC(C)C)NC(=O)[C@H](CC(=O)O)NC(=O)[C@H](CO)NC(=O)[C@@H](NC(=O)[C@H](Cc1ccccc1)NC(=O)[C@@H](NC(=O)CNC(=O)[C@H](CCC(N)=O)NC(=O)C(C)(C)NC(=O)[C@@H](N)Cc1ccc(O)cc1)[C@@H](C)O)[C@@H](C)O)[C@@H](C)CC)C(=O)N[C@@H](CC(=O)O)C(=O)N[C@@H](CO)C(=O)N[C@@H](CCCNC(=N)N)C(=O)N[C@@H](CCCNC(=N)N)C(=O)N[C@@H](C)C(=O)N[C@@H](CCC(N)=O)C(=O)N[C@@H](CC(=O)O)C(=O)N[C@@H](Cc1ccccc1)C(=O)N[C@H](C(=O)N[C@@H](CCC(=O)O)C(=O)N[C@@H](Cc1c[nH]c2ccccc12)C(=O)N[C@@H](CC(C)C)C(=O)N[C@@H](CCCCN)C(=O)N[C@@H](C)C(=O)NCC(=O)NCC(=O)N1CCC[C@H]1C(=O)N[C@@H](CO)C(=O)N[C@@H](CO)C(=O)NCC(=O)N[C@@H](C)C(=O)N1CCC[C@H]1C(=O)N1CCC[C@H]1C(=O)N1CCC[C@H]1C(=O)N[C@@H](CO)C(N)=O)[C@@H](C)CC)C(=O)O
B6: exendin-4 peptide analogue SEQ ID NO: 54 (peptide)
peptide: Y[Aib]EGTFTSDLSIQK([γGlu-Palmitoyl])DKRKAQDFIEWLKNGGPSSGAPPPS-NH2
modifications: N-terminus assumed
SMILES: CCCCCCCCCCCCCCCC(=O)N[C@@H](CCC(=O)NCCCC[C@H](NC(=O)[C@H](CCC(N)=O)NC(=O)[C@@H](NC(=O)[C@H](CO)NC(=O)[C@H](CC(C)C)NC(=O)[C@H](CC(=O)O)NC(=O)[C@H](CO)NC(=O)[C@@H](NC(=O)[C@H](Cc1ccccc1)NC(=O)[C@@H](NC(=O)CNC(=O)[C@H](CCC(=O)O)NC(=O)C(C)(C)NC(=O)[C@@H](N)Cc1ccc(O)cc1)[C@@H](C)O)[C@@H](C)O)[C@@H](C)CC)C(=O)N[C@@H](CC(=O)O)C(=O)N[C@@H](CCCCN)C(=O)N[C@@H](CCCNC(=N)N)C(=O)N[C@@H](CCCCN)C(=O)N[C@@H](C)C(=O)N[C@@H](CCC(N)=O)C(=O)N[C@@H](CC(=O)O)C(=O)N[C@@H](Cc1ccccc1)C(=O)N[C@H](C(=O)N[C@@H](CCC(=O)O)C(=O)N[C@@H](Cc1c[nH]c2ccccc12)C(=O)N[C@@H](CC(C)C)C(=O)N[C@@H](CCCCN)C(=O)N[C@@H](CC(N)=O)C(=O)NCC(=O)NCC(=O)N1CCC[C@H]1C(=O)N[C@@H](CO)C(=O)N[C@@H](CO)C(=O)NCC(=O)N[C@@H](C)C(=O)N1CCC[C@H]1C(=O)N1CCC[C@H]1C(=O)N1CCC[C@H]1C(=O)N[C@@H](CO)C(N)=O)[C@@H](C)CC)C(=O)O

What was measured:
Experiment in all cases: cell-based or functional assay
human GLP-1 receptor = human GLP-1 receptor (human, UniProt P43220 24-463)
human GIP receptor = biological target: T1, human GIP receptor (human, UniProt P48546 22-466)
T1 sequence (looked up): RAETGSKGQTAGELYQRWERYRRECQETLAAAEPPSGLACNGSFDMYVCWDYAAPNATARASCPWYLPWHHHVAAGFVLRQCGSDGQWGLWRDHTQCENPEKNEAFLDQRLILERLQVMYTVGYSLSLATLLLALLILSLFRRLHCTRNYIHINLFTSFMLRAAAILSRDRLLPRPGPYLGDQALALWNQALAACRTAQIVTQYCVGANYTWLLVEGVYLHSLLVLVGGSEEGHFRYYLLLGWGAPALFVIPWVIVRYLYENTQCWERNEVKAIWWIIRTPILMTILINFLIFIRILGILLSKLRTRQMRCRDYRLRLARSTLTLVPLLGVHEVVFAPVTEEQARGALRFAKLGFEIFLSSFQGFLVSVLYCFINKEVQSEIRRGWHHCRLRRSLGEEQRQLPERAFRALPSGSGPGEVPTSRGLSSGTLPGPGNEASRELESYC

human glucagon receptor = human glucagon receptor (human, UniProt P47871 26-477)
Chain of human glucagon receptor (P47871 26-477): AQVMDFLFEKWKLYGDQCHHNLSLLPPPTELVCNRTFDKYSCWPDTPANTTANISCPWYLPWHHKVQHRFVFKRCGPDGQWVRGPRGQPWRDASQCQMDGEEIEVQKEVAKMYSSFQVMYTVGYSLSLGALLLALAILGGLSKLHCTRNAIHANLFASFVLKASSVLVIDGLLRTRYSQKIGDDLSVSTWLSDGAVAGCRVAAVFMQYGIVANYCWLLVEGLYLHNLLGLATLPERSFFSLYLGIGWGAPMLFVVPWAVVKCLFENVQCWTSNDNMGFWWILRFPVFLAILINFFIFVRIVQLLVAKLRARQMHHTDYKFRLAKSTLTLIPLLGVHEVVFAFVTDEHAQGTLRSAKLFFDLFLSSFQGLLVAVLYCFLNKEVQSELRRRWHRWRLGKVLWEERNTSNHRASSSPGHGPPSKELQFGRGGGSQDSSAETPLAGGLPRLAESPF

| Binder | EC50 hGLP-1 R (human GLP-1 receptor) | EC50 hGIP R (human GIP receptor) | EC50 hGLUC R (human glucagon receptor) |
| --- | --- | --- | --- |
| B1 | 5.2 pM | 14.4 pM | 667 pM |
| B2 | 13.6 pM | 93.2 pM | 7.9 pM |
| B3 | 4.6 pM | 162 pM | 19.9 pM |
| B4 | 16.1 pM | 15.6 pM | 18300 pM |
| B5 | 25.6 pM | 182 pM | 13.3 pM |
| B6 | 66.8 pM | 105 pM | 2620 pM |

Source: US20140213513A1 (Sanofi, priority 2012, published 2014)
